# Test results from the RNAGym collection of RNA variant scans (doi:10.1073/pnas.2313332121).
# B1: TPR t1 (parent)
# chain: GACCAAUCUGCCCUCAGAGCUCGAGAACAUCUUCGGAUGCAGAGGAGGCAGGCUUCGGUGGCGCGAUAGCGCCAACGUCCUCAACCUCCAAUGCAUCCCACCACAUGAUGAUGCCUGAAGAGCCUUGGUUUUUUG
# Variants of: B1
# Test: polymerase ribozyme fitness, log enrichment relative to wild type (log ratio); higher = more active; in vitro selection for triplet polymerase activity
# Method in brief: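 To select mutant libraries of each subunit of a heterodimeric triplet polymerase ribozyme, built by PCR and transcribed, each was annealed with a biotinylated primer, partner subunit and triplets, then incubated frozen at −7 °C. Extended constructs were gel-excised, captured on streptavidin beads and amplified by RT-PCR, in one round carried out in triplicate. Illumina sequencing of input and output libraries kept genotypes with ≥10 input reads and ≥1 read per output. Fitness is the base-2 logarithm of genotype enrichment relative to wild-type enrichment, from inverse-variance-weighted replicate averages.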
row,Variant,polymerase ribozyme fitness (log ratio)
1,A2U G10U A100C,-4.35
2,A2U C15G,-4.66
3,A2U G51A C123A,-4.9
4,A2C C12G C115A U125A,-2.05
5,A2C C40G C56G C72G C124U,-4.17
6,A2G G10C G51C G52U,-5.66
7,A2C U106A,-1.44
8,A2G G107U,-5.37
9,A2U C76A,-3.43
10,A2U C12A G63U C104G U109C,-6.12
11,A2C C49G U67G A84G G110U,-5.64
12,A2C C4U U9A C76U,-0.884
13,A2G G19U G120U,-2.98
14,A2G G60C G71U A91C G120C,-6.25
15,A2U C56A G120C,-2.63
16,A2G C13G C86U C123A U133C,0.0468
17,A2G G93C,-1.48
18,A2G C11A C56G,-1.58
19,A2U C99U,-5.84
20,A2U C11A U33A A37U G61U G120A,-4.91
21,A2G C82A A111U,-4.1
22,A2U A50U,-3.14
23,G1U,0.29
24,A2C C15U C56U U129C,-1.75

row,Variant,polymerase ribozyme fitness (log ratio)
1,A2G G122A U129C,-1.77
2,A2U A121U,-0.628
3,A2G G52U G69C C86U,-1.64
4,A2C G10A C13U G69C,-3.6
5,A2U G47A C72A A121G,-0.127
6,A2U C11U G45A U81C,-6.34
7,A2U A37G G61A U87G,-2.89
8,A2C C12U G42U A84U C94A U129A,-3.55
9,A2G A18U C28G C124A U130C,-5.83
10,A2C G47C C123G,-2.2
11,A2G A29G G71A A90C,-3.65
12,A2G G63A C99U C101A A121G C124G,-4.81
13,A2G C123G,1.69
14,A2G C12U C101U A105U C115A,-1.02
15,A2C A105C,-4.23
16,A2C U54C G110A,-3.04
17,A2U A6G G17U G39U G52U C73G,-5.54
18,A2G G35C C124A,-4.18
19,A2U C11G G48U G93U G120C G122U,-1.28
20,A2C C13G C15U C62U,-4.93
21,A2G G63C,-0.0882
22,A2G C56A,-0.384
23,A2C C13A G36C G120U,-1.59
24,A2U C13A C28U U112G,-6

row,Variant,polymerase ribozyme fitness (log ratio)
1,A2G G61A,0.0396
2,A2G G36C G48U G52U U59G C79G U112C,0.109
3,A2U C102U G113A U129A,-2.88
4,A2C G61U,-1.66
5,A2U C13U A50G G63A U112C,-1.43
6,A2U C8U G47C G93U,-4.25
7,A2U A5C A26G U54A,-4.4
8,A2G C12U C56A C97U C124U,0.631
9,A2G G19U C34U G47A C49A C80A G93C G120U,-6.24
10,A2U C22U C86U G110U,-6.04
11,A2G C20U,-1.26
12,A2U G39C G45A U132A,-3.5
13,A2U C4A U33G C49G G58C A121C,-5.98
14,A2C G44C,-3.44
15,A2G C82G,-1.18
16,A2C A37U C56G G69A U78G G120U,-5.2
17,A2G C70U U96A,-1.87
18,A2G G39U G57C A74U U112A C114G,-2.17
19,A2G A27U C79G C104U,-4.76
20,A2C C11A G17C C70U C123G,-3.69
21,A2C U59G,-1.54
22,A2U C11G,0.322
23,A2G C13U A46U C86A G113U G120U C123G,-4.13
24,A2U C72U G110A,-4.59

row,Variant,polymerase ribozyme fitness (log ratio)
1,A2C G110A A121C,-2.66
2,A2U C8U G69U C82G C114U,-2.12
3,A2C A50U,-2.44
4,A2U C13U G77C,-1.85
5,A2C G19A A29C A41G A43U C64G G113A C123A U126G,-5.93
6,A2G U21A G69U G71C,-4.01
7,A2C C88G C104A U112G,-4.8
8,A2C C20G G60A U112C,-4.64
9,A2G U55G G71A A95U,-1.12
10,A2C G63U A84G U131G,-4.08
11,A2C A24G A29C G47U G120A,-5.73
12,A2G C20A C88U,-4.8
13,A2C C72U,-2.38
14,A2U G35U G69U C79U G120A G128A,-3.99
15,A2U C40U C115A U133G,-2.75
16,A2G U7A C12A G39A C82A G122A,-0.0716
17,A2G U7A C70U A74C,-0.954
18,A2G G10U A43U C62G C79U,-3.6
19,A2C U14G U54G U96G A100U G117A U126A U129G,-5.8
20,A2C A5C C62A G128C,-2.75
21,A2G G110U A118G,-1.67
22,A2G C62U A83G,-1.82
23,A2U A37U C62U C72U U78A C124G,-0.559
24,A2C C3G G52U G60A U129A,-5.23

row,Variant,polymerase ribozyme fitness (log ratio)
1,A2G G42U G69A C123A,-5.6
2,A2C C3G G71C U129A,-4.77
3,A2U G42A A83U C88U,-5.05
4,A2G A74U C89G U112A,-1.32
5,A2G G19A A43G C80U C104U,-4.42
6,A2C U59C C73A U131A,-2.5
7,A2C C72A G120U,-1.37
8,A2C U7G G57U G60U,-0.82
9,A2U A108G,-3.51
10,A2G C22A,-4.99
11,A2C G42U,-3.31
12,A2C A83U,-1.1
13,A2U C82U C86G A121G,-0.832
14,A2C C4A G120A,0.58
15,A2U C115G,-3.95
16,A2U C40U G47U C72U C124A,-3.11
17,A2G U9C C13U A18U C56G C72G A95G,-4.64
18,A2U C12U A27U G47A,-5.43
19,A2G C13U A91C G122A,-0.77
20,A2C C15A A27C C31A G51U A84C C99G A121U U130G,-6.15
21,A2U C88G U130A,-2.84
22,A2C C89G,-3.68
23,A2G G47U A84C C88U A90U A91C U133G,-2.71
24,A2G C97U G117A A119G,-0.0934

row,Variant,polymerase ribozyme fitness (log ratio)
1,A2G C12G G17A U54C C88U A91U C101U A105U C114G,-5.19
2,A2C G52C,-2.58
3,A2G G63C U116A,-4.03
4,A2U C12U G110A U129C,-1.58
5,A2G A18C A91C,-2.93
6,A2G C12U,-0.378
7,A2G C56A C73U A84U G120U,-1.68
8,A2C C101A U129A,-2.79
9,A2G C28U G110U,-2.63
10,A2U A6G C12U A24G C56A C97U,-3.05
11,A2C G39U,-2.12
12,A2U A46U G47C G71A U132C,-3.81
13,A2C U33A C97A U106A G120C U126A,-6.8
14,A2U C62U G117U,-5.02
15,A2G G51A C73G,-2.89
16,A2C C62U G110A,-3.07
17,A2G C8A G51U U59G,-2.18
18,A2U C53G C88G,-3.42
19,A2G G120A,0.359
20,A2C G42C U96A C123U,-3.31
21,A2G G71U,-0.153
22,A2C C3U,-1.71
23,A2C C49A G93U G110A,-4.44
24,A2U A16U U96A G128A,-4.83

row,Variant,polymerase ribozyme fitness (log ratio)
1,A2G U9G G10U A27C C56G,-3.86
2,A2G G45U C82A,-2.5
3,A2G C114A U126C,-4.32
4,A2G C20G G113A,-1.61
5,A2G C13U C53U,-0.428
6,A2U A16G A26U G60U A119G,-4.84
7,A2G C13U,0.291
8,A2U C8G A27C G36C C40G G60A G93C G110U U130G,-5.89
9,A2U C13A C73U A74G,-3.05
10,A2G U9C C13U A18U C56G A95G,-1.78
11,A2U A91C G120U,-3.98
12,A2U C40A G128U,-4.11
13,A2C C12G,-1.09
14,A2G A18U A29G C104G C124U U130G,-4.82
15,A2C U7A G10U C98U,-4.07
16,A2C C12G G69U,0.12
17,A2G C12G U21A G71U U78A A121U,0.758
18,A2G G61A U116A,-4.16
19,A2G A68G U106G U125G,-5.29
20,A2C C15U C104U,-2.51
21,A2G U55G G135U,-1.42
22,A2G G48U C80U U130C,-2.35
23,A2U C13A C73G,-5.15
